Laboratory results from paper PMC2118908.

Molecular target: gp41 of HIV-1/IIIB virions (virus stock, culture supernatant) (HIV-1 (isolate IIIB)) (UniProt P04578)
Assay: SEC + ELISA

“gp120 of HIV-1/IIIB virions (virus stock, culture supernatant) (from UniProt P04578 33-511) (natural protein)” showed a percent of total gp120 virion bound (virus + sCD4) of 24%, a percent of total gp120 virion bound (virus + sCD4 + thrombin) of 18% and a percent of total gp120 virion bound (virus + thrombin + sCD4) of 20%. For the same substance, the percent of total gp120 virion bound (virus + thrombin) was 59%, the percent of total gp120 virion bound (virus alone) was 57% and the percent of total gp120 virion-bound (virus stock) was 55%. It also gave a reduction of virion bound gp120 after 10 h at 4C with sCD4 of 10%.
